# Like-named read-outs stand apart in the source and are kept apart here.
# Experiments:
# [1] = test system: monkeys; experiment: Pivotal single-dose IV toxicity and cardiovascular safety study in monkeys; format: in vivo
# From the text: The single- and repeat-dose toxicity of BMS-986326 were characterized in a series of studies in rats for up to 2 weeks and in monkeys up to 12 weeks using selected dosing frequencies. Pivotal good laboratory practice (GLP) repeat-dose studies in both species employed SC administration of BMS-986326 and consisted of two 2-week studies in rats using differing dose frequencies (once weekly [QW] vs twice weekly [2QW]), a 2-week once weekly dosing study in monkeys, and a 12-week (once every 3 week, Q3W) dosing study in monkeys. In addition, single-dose exploratory studies were initially completed in both rats and monkeys to explore the tolerability of BMS-986326, and a single-dose GLP IV toxicity and cardiovascular safety study was also completed in telemeterized monkeys using IV dosing to support IV administration in the first-in-human (FIH) single-ascending dose (SAD) study (IM034001).
# Microscopically, there were dose-dependent multisystemic infiltrates of eosinophils and mononuclear cells in some tissues.
# [2] = test system: monkeys; experiment: 12-week monkey toxicity study, SC Q3W
# Experimental: In the 12-week monkey study, dose range and frequencies were reduced compared to the 2-week study with BMS-986326 administered at 0.0625, 0.125, or 0.25 mg/kg SC Q3W (Days 1, 22, 43, and 64).
# [3] = biological target: IL-2Rβγ (as a pre-assembled heterodimer); experiment: Binding affinity to rat IL-2Rβγ
# [4] = Linker-cleavage in human serum in vitro (LC-MS/MS); format: in vitro ADME; details: up to 72 hours
# Experimental: (§1) Various in vitro and in vivo studies were conducted to characterize the PK of BMS-986326 in the nonclinical setting.
# [5] = test system: rats; experiment: 2-week toxicity study in rats, once weekly SC; format: in vivo
# From the text: (§2) The highest exposures were noted during the first week of each study and diminished considerably during the second week, due to ADA impact. […] Splenic capsular fibroplasia with inflammation was considered adverse at all twice weekly doses due to moderate to marked severity and was also associated with minimal to mild inflammation in the mesentery (adjacent to the stomach and pancreas), which further contributed to the adversity of the finding. […] The primary BMS-986326-related effects were mostly minimal in severity at all once weekly doses (0.25, 0.5, or 1 mg/kg) and included increased eosinophils (1.9× to 6.7×); minimal capsular fibroplasia/fibrosis of spleen without inflammation or involvement of adjacent mesentery; and pharmacologically mediated infiltration of eosinophils into a few tissues, none of which were considered adverse due to low magnitude of change and lack of evidence of any compromise in functional integrity of organs involved.
# [6] = Nonclinical pharmacokinetics in monkeys; format: in vivo
# Experimental: as §1
# [7] = test system: monkeys; details: monkey, in vivo, sc
# [8] = test system: self-blocking homodimer; experiment: Biochemical and biophysical characterization: homodimer dissociation; format: binding; details: in vitro at 37° C.
# [9] = test system: Kit225 Interferon Regulatory Factor 1 (IRF1)-driven reporter cell line; experiment: Kit225 IRF1-driven reporter cell line assay; format: cell-based
# [10] = biological target: T1, IL-2Rβγ (as a pre-assembled heterodimer) (Mus musculus, UniProt P16297+P34902); experiment: Binding affinity to mouse IL-2Rβγ
# T1 sequence (P16297 27-240 limits assumed): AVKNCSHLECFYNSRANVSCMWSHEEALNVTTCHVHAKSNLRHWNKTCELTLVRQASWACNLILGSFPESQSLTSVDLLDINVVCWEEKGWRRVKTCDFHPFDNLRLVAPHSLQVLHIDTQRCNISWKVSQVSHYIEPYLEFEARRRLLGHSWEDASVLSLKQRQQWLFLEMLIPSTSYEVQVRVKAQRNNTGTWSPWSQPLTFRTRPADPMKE
# T1 sequence (P34902 23-263 limits assumed): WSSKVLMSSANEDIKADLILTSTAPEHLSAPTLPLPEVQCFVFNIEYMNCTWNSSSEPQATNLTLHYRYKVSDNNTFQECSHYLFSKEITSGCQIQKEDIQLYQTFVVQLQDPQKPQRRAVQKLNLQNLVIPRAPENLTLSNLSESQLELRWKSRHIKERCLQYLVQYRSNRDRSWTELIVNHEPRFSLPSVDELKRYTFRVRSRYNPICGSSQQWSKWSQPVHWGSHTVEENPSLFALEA
# [11] = test system: pSTAT5 in Tregs, Tconv, CD8 cells and NK cells; experiment: Whole blood pSTAT5 assay, selectivity across cell types; format: cell-based
# [12] = test system: monkeys; details: monkey, in vivo
# [13] = Linker-cleavage ex vivo in monkey serum samples (LC-MS/MS); format: in vitro ADME; details: monkey serum samples ex vivo after SC administration, up to 168 hours
# Experimental: as §1
# [14] = test system: rats; experiment: 2-week toxicity study in rats, twice weekly SC; format: in vivo
# From the text: as §2
# [15] = Nonclinical pharmacokinetics in mice; format: in vivo
# Experimental: as §1
# Chain of self-blocking homodimer (as listed by the source): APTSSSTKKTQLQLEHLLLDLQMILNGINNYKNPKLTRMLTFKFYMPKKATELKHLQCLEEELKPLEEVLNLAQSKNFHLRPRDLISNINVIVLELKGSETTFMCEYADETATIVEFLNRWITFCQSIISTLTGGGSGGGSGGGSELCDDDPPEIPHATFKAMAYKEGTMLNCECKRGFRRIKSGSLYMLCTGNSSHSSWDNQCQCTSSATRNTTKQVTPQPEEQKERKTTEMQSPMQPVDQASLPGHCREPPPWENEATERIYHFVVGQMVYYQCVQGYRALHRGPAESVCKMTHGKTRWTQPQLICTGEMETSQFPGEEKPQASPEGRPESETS
substance,measurement,setting,value
"BMS-986326: recombinant fusion protein of human IL2 and extracellular domain of human CD25, (GGGS)3 linker, non-covalent self-blocking homodimer","blood pressure, CLS-like effects, hemodynamic and electrocardiographic parameters","[1]; monkey, in vivo, iv","no decreases in blood pressure, CLS-like effects, or other effects on hemodynamic or electrocardiographic parameters"
same,increase in eosinophils,"[1]; monkey, in vivo, iv",up to 91.6 ×
same,mean AUC [0-336 h] across all doses,"[1]; monkey, in vivo, iv",≤ 757 µg·h/mL
same,increased heart rate relative to baseline,"[1]; monkey, in vivo, iv, 0.5 mg/kg",4%
same,transient increase in mean body temperature,"[1]; monkey, in vivo, iv, 0.5 mg/kg",up to 1.1 °C
same,clinical tolerability,"[1]; monkeys, single IV 0.05, 0.15 or 0.5 mg/kg",clinically well tolerated at all doses
same,no-observed-adverse-effect level (NOAEL),"[1]; monkeys, single IV dose",0.5 mg/kg
same,NOAEL AUC[0-336 hours],[1]; single-dose monkey toxicology study,≤ 757 μ·h/ml
same,NOAEL AUC[0-504 hours],[2]; 12-week (once every 3 weeks) SC monkey toxicology study,≤ 306 μ·h/ml
same,magnitude of increase in Tregs relative to increase in conventional T cells,"[2]; 12-week monkey study, Q3W, across the dose range",≤ 2 times
same,eosinophilic or mononuclear cell infiltration into other tissues,"[2]; monkey, in vivo, sc",no eosinophilic or mononuclear cell infiltration into other tissues
same,NOAEL,"[2]; monkeys, 12-week SC Q3W",0.25 mg/kg/dose
same,mean AUC at NOAEL,"[2]; monkeys, […] Q3W",306 µg·h/mL
same,Kd,[3],> 4 µM
same,linker-cleavage,[4],did not show signs of linker-cleavage
same,mean AUC at NOAEL,[5]; 1 mg/kg once weekly,162 µg·h/mL
same,NOAEL,[5]; once weekly dosing for 2 weeks,1 mg/kg
same,total serum clearance (CLTs),[6],0.769 mL/h/kg
same,steady-state volume of distribution (Vss),[6]; IV,0.0734 L/kg
same,absolute bioavailability,[6]; SC dosing,46%
same,apparent elimination half-life (T-HALF),[6]; SC dosing,79.2 h
same,time of maximum concentration (Tmax),[6]; SC dosing,24 h
same,AUC,[7]; 0.075 mg/kg,approximately 48 μg·h/mL
same,AUC,[7]; 0.75 mg/kg,~407 µg·h/mL
same,AUC[INF],[7]; 0.75 mg/kg,407 µg·h/mL
same,dissociation half-life of self-blocking homodimer,[8],approximately 3 days
same,decrease of in vitro potency compared to recombinant IL-2,[9],> 100 fold
same,EC50,"[9]; Kit225 IRF1-driven reporter cell line, read-out: average half-maximal effective concentration (EC50)",0.0034 µM
same,Kd,[10],> 4 µM
same,% of Tregs pSTAT5+,[11]; highest concentration of drug,> 90%
same,"% pSTAT5+ cells in Tconv, CD8 cells and NK cells",[11]; highest concentration of drug at 71 nM,< 50%
same,decreased platelets,[12],0.9-0.6
same,decreased red cell mass versus pretest,[12],0.9-0.6
same,doses with adverse inflammation in eye choroid and choroid plexus of brain,[12],≥ 0.25 mg/kg/week
same,increased liver weights,[12],16-75%
same,number of tissues affected by mixed cell inflammation,[12],16-28
same,clinical signs,[12]; 0.75 mg/kg,adverse clinical signs of toxicity
same,increased heart rate,[12]; 0.75 mg/kg,25-28%
same,mean AUC[0-168 h],[12]; 0.75 mg/kg,≥ 601 µg·h/mL
same,linker-cleavage,[13],did not show signs of linker-cleavage
same,doses with adverse capsular fibroplasia and inflammation of the spleen,"[14]; rat, in vivo",≥ 0.5 mg/kg
same,increases in eosinophils versus controls,"[14]; rat, in vivo, 0.5 mg/kg",3-22 ×
same,clinically tolerated doses,"[14]; rats, 2-week studies, all doses",≤ 2.5 mg/kg
same,NOAEL,"[14]; rats, twice weekly dosing study",a NOAEL was not identified
same,mean AUC [0-336 h] at tolerated doses,"[14]; rats, ≤[…]",≤ 600 µg·h/mL
same,total serum clearance (CLTs),[15],3.25 mL/h/kg
same,steady-state volume of distribution (Vss),[15]; IV,0.0954 L/kg
same,absolute bioavailability,[15]; SC dosing,58%
same,apparent elimination half-life (T-HALF),[15]; SC dosing,28.3 h
same,time of maximum concentration (Tmax),[15]; SC dosing,7 h
